Results on one substance are retold here after patent US20080090755A1.

Test [1] concerns the target growth/differentiation factor-8 (GDF-8) (UniProt O14793). Nature of the test: cell-based or functional assay.
Another test deals with activin. Nature of the test: cell-based or functional assay.

UniProt O14793, sequence (O14793 267-375 limits assumed): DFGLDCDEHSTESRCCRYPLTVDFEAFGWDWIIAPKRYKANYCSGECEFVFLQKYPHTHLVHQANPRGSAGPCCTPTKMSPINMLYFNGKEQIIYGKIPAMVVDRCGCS

For follistatin, the inhibition of elevation in standardized luciferase activity due to GDF-8 ((CAGA)12-MLP-Luc reporter assay, HEK293 cells) in test [1] turned out to be 100%. For the same substance, the inhibition of elevation in standardized luciferase activity due to activin ((CAGA)12-MLP-Luc reporter assay, HEK293 cells) with activin stood at 100%.
